One may read the Kd as the free concentration of one partner at which half of the binding sites on the other are occupied at equilibrium, for simple one-to-one binding. In general, koff refers to the first-order rate constant of dissociation. Read a low koff as slow dissociation. Broadly, the kon is the rate constant with which the complex forms.

We go through 12 molecules from patent US20250320286A1 (Janssen / Centocor, published 2025).

Experiment [1] concerns the target fibronectin. Description: SPR; KD for this target divided by KD for human Aβ 3pE-28. The protocol: (§1) In some instances, binding affinities and specificity of anti-Aβ 3pE mAbs were measured by SPR performed using different instruments (Biacore T200, Biacore 8K or MASS-2 (Biacore, Inc.)) and anti-human or anti-mouse immunoglobulin biosensor surfaces. Anti-human or anti-mouse immunoglobulin antibodies were covalently coupled to the surface of CM4 or CM5 sensor chips (GE Healthcare) using manufacturer instructions for amine-coupling chemistry. Antibodies of interest were captured on the anti-human or mouse immunoglobulin sensor chip to a level of 300-400 RU, followed by injection of Aβ peptides or proteins (examples: human Aβ 3pE-40(SEQ ID NO:40), Aβ 3pE-28 (SEQ ID NO:42), scrambled Aβ 3pE-28 (SEQ ID NO:44), Aβ 1-28 (SEQ ID NO:43), mouse Aβ 3pE-28 (SEQ ID NO:46), or Fibronectin) at various concentrations in HEPES Buffered Saline containing 0.005% surfactant P20 (Tween™ 20). The surface was regenerated with 2 pulses injections of 30 μL of 10 mM Gly pH1.5 at 100 μL/min. Data reported is the difference in SPR signal between the flow cell containing the captured antibody and a reference cell without captured antibody. Additional instrumental contributions to the signal were removed by subtraction of the data from the blank injection from the reference-subtracted signal. When applicable data were analyzed by fitting association and dissociation phases at all concentrations (global fit) with a 1:1 binding model using the Biaevaluation software (Biacore, Inc.). Otherwise the data was evaluated qualitatively for YES/NO binding.
In general terms: Surface plasmon resonance follows binding to a sensor surface in real time, without labels.

In experiment [2] the target is fibronectin. Description: SPR; no binding up to 1.2 µM. The protocol: as §1
Experiment [3] addresses T1, 3pE Aβ peptide (antigen, form not stated).
T1 construct: also called the peptide
Description: SPR; antigen peptide not named.

Experiment [4] addresses 4U-3pE-beta-Amyloid. Description: SPR; 4U-3pE-beta-Amyloid 0.6 to 4.5 nM.
For experiment [5], the target named is T1, 3pE Aβ peptide (antigen, form not …). Description: SPR; antigen peptide not named; range over the HFA variants.

B1: BAMB246 (human IgG1 chimera) (antibody)
heavy: not shown
light: DVVMTQTPLTLSVTIGQPASISCKSSQSLLDSNGKTYLTWLLQRPGQSPKRLIYLVSKLDSGVPDRFTGSGAGTDFTLKIIRVEAEDLGVYYCWQGTHFPYTFGGGTKLEIKRTVAAPSVFIFPPSDEQLKSGTASVVCLLNNFYPREAKVQWKVDNALQSGNSQESVTEQDSKDSTYSLSSTLTLSKADYEKHKVYACEVTHQGLSSPVTKSFNRGEC
notes: Mouse variable regions on a human IgG1 constant region; also called BAMB246 (human chimeric parent)
Take B1: the “Fold Selectivity” value in experiment [1] is above 95000 fold. Besides, the equilibrium dissociation constant (Kd) is above 1200 nM in experiment [2] and 0.0139 nM in experiment [3].

B2: BAMB674 (antibody, human IgG1, kappa)
heavy: not shown
light: DVVMTQSPLSLPVTLGQPASISCKSSQSLLDSRAKTYLTWLQQRPGQSPRRLIYLVSKLDSGVPDRFSGSGSGTDFTLKISRVEAEDVGVYYCWQGTHFPYTFGGGTKLEIKRTVAAPSVFIFPPSDEQLKSGTASVVCLLNNFYPREAKVQWKVDNALQSGNSQESVTEQDSKDSTYSLSSTLTLSKADYEKHKVYACEVTHQGLSSPVTKSFNRGEC
notes: Lead HFA variant, wild type human IgG1; HCDR2 N55S; also called BAMAB674; BAMB31 HFA mAb, wild type IgG1
In the case of B2, in experiment [4], binding was put at a Kd of 0.0401 nM, the off-rate constant (koff) was 0.000136 s⁻¹ and the kon is 3.39e+06 M⁻¹ s⁻¹. Also, the “Fold Selectivity” value in experiment [1] is above 47000 fold. Moreover, the Kd in experiment [2] was above 1200 nM.

B3: BAMB701 (antibody, human IgG1, kappa)
heavy: QVQLVQSGAEVKKPGASVKVSCKASGHVFTSYDMYWVRQAPGQGLEWIGYIDSDSGDTSYNQKFKGRVTLTVDTSTSTVYMELSSLRSEDTAVYYCAYYRYAMDYWGQGTLVTVSSASTKGPSVFPLAPSSKSTSGGTAALGCLVKDYFPEPVTVSWNSGALTSGVHTFPAVLQSSGLYSLSSVVTVPSSSLGTQTYICNVNHKPSNTKVDKKVEPKSCDKTHTCPPCPAPELLGGPSVFLFPPKPKDTLYITREPEVTCVVVDVSHEDPEVKFNWYVDGVEVHNAKTKPREEQYNSTYRVVSVLTVLHQDWLNGKEYKCKVSNKALPAPIEKTISKAKGQPREPQVYTLPPSREEMTKNQVSLTCLVKGFYPSDIAVEWESNGQPENNYKTTPPVLDSDGSFFLYSKLTVDKSRWQQGNVFSCSVMHEALHNHYTQKSLSLSPGK
light: DVVMTQSPLSLPVTLGQPASISCKSSQSLLDSRAKTYLTWLQQRPGQSPRRLIYLVSKLDSGVPDRFSGSGSGTDFTLKISRVEAEDVGVYYCWQGTHFPYTFGGGTKVEIKRTVAAPSVFIFPPSDEQLKSGTASVVCLLNNFYPREAKVQWKVDNALQSGNSQESVTEQDSKDSTYSLSSTLTLSKADYEKHKVYACEVTHQGLSSPVTKSFNRGEC
As for B3, in experiment [4], the Kd worked out at 0.0314 nM, the koff turned out to be 9.47e-05 s⁻¹ and the kon amounted to 3.01e+06 M⁻¹ s⁻¹.

B4: BAMB700 (antibody, human IgG1, kappa)
heavy: not shown
light: DVVMTQSPLSLPVTLGQPASISCKSSQSLLDSRAKTYLTWLQQRPGQSPRRLIYLVSKLDSGVPDRFSGSGSGTDFTLKISRVEAEDVGVYYCWQGTHFPYTFGQGTKLEIKRTVAAPSVFIFPPSDEQLKSGTASVVCLLNNFYPREAKVQWKVDNALQSGNSQESVTEQDSKDSTYSLSSTLTLSKADYEKHKVYACEVTHQGLSSPVTKSFNRGEC
As for B4, in experiment [4], binding was put at a Kd of 0.0342 nM, the koff was found to be 9.86e-05 s⁻¹ and the kon is 2.88e+06 M⁻¹ s⁻¹.

B5: BAMB675 (antibody, human IgG1, kappa)
heavy: QVQLVQSGAEVKKPGASVKVSCKASGHVFTSYDMYWVRQAPGQGLEWIGYIDSDSGDTSYNQKFKGRVTLTVDTSTSTVYMELSSLRSEDTAVYYCAYYRYAMDYWGQGTLVTVSSASTKGPSVFPLAPSSKSTSGGTAALGCLVKDYFPEPVTVSWNSGALTSGVHTFPAVLQSSGLYSLSSVVTVPSSSLGTQTYICNVNHKPSNTKVDKKVEPKSCDKTHTCPPCPAPELLGGPSVFLFPPKPKDTLYITREPEVTCVVVDVSHEDPEVKFNWYVDGVEVHNAKTKPREEQYNSTYRVVSVLTVLHQDWLNGKEYKCKVSNKALPAPIEKTISKAKGQPREPQVYTLPPSREEMTKNQVSLTCLVKGFYPSDIAVEWESNGQPENNYKTTPPVLDSDGSFFLYSKLTVDKSRWQQGNVFSCSVMHEALHNHYTQKSLSLSPGK
light: DVVMTQSPLSLPVTLGQPASISCKSSQSLLDSRAKTYLTWLQQRPGQSPRRLIYLVSKLDSGVPDRFSGSGSGTDFTLKISRVEAEDVGVYYCWQGTHFPYTFGGGTKLEIKRTVAAPSVFIFPPSDEQLKSGTASVVCLLNNFYPREAKVQWKVDNALQSGNSQESVTEQDSKDSTYSLSSTLTLSKADYEKHKVYACEVTHQGLSSPVTKSFNRGEC
notes: Same V regions as BAMB674 on IgG1 with M37Y, S39T, T41E in the Fc (numbering on GenBank AEV43323); also called BAMB31 HFA mAb, +YTE IgG1
In experiment [4], B5 gave a Kd of 0.0443 nM, a koff of 0.000166 s⁻¹ and a kon of 3.74e+06 M⁻¹ s⁻¹. For the same molecule, the “Fold Selectivity” value in experiment [1] is above 46000 fold. The same molecule gave a Kd in experiment [2] above 1200 nM.

B6: BAMB631 (antibody, human IgG1, kappa, V domains shown)
VH: QVQLVQSGAEVKKPGASVKVSCKASGHVFTSYDMYWVRQAPGQSLEWMGYIDSDNGDTSYNQKFKGRVTLTVDTSTSTVYMELSSLRSEDTAVYYCAYYRYAMDYWGQGTLVTVSS
VL: DVVMTQSPLSLPVTLGQPASISCKSSQSLLDSRAKTYLTWLLQRPGQSPRRLIYLVSKLDSGVPDRFSGSGSGTDFTLKISRVEAEDVGVYYCWQGTHFPYTFGGGTKLEIKR
notes: BAMB31 HFA variant, human IgG1
Turning to B6, the Kd in experiment [3] was determined as 0.018 nM.

B7: BAMB623 (antibody, human IgG1, kappa, V domains shown)
VH: QVQLVQSGAEVKKPGASVKVSCKASGHVFTSYDMYWVRQAPGQSLEWIGYIDSDNGDTSYNQKFKGKATMTVDTSTSTVYMELSSLRSEDTAVYYCAYYRYAMDYWGQGTLVTVSS
VL: DVVMTQSPLSLPVTLGQPASISCKSSQSLLDSRAKTYLTWLQQRPGQSPRRLIYLVSKLDSGVPDRFSGSGSGTDFTLKISRVEAEDVGVYYCWQGTHFPYTFGGGTKLEIKR
notes: as for B6
B7 displayed a Kd in experiment [3] of 0.0183 nM.

B8: BAMB611 (antibody, human IgG1, kappa, V domains shown)
VH: QVQLVQSGAEVKKPGASVKVSCKASGHVFTSYDMYWVRQAPGQGLEWMGYIDSDNGDTSYNQKFKGRVTMTVDTSTSTVYMELSSLRSEDTAVYYCAYYRYAMDYWGQGTLVTVSS
VL: DVVMTQSPLSLPVTLGQPASISCKSSQSLLDSNGKTYLTWFQQRPGQSPRRLIYLVSKLDSGVPDRFSGSGSGTDFTLKISRVEAEDVGVYYCWQGTHFPYTFGGGTKLEIKR
notes: as for B6
As to B8, the dissociation constant (Kd) in experiment [5] and in experiment [3] was 1.52 nM in each case.

B9: BAMB614 (antibody, human IgG1, kappa, V domains shown)
VH: QVQLVQSGAEVKKPGASVKVSCKASGHVFTSYDMYWVRQAPGQGLEWIGYIDSDNGDTSYNQKFKGRVTLTVDTSTSTVYMELSSLRSEDTAVYYCAYYRYAMDYWGQGTLVTVSS
VL: DVVMTQSPLSLPVTLGQPASISCKSSQSLLDSRAKTYLTWLQQRPGQSPRRLIYLVSKLDSGVPDRFSGSGSGTDFTLKISRVEAEDVGVYYCWQGTHFPYTFGGGTKLEIKR
notes: as for B6
With B9, binding in experiment [3] was put at a Kd of 0.016 nM.

B10: BAMB613 (antibody, human IgG1, kappa, V domains shown)
VH: QVQLVQSGAEVKKPGASVKVSCKASGHVFTSYDMYWVRQAPGQGLEWIGYIDSDNGDTSYNQKFKGKVTLTVDTSTSTVYMELSSLRSEDTAVYYCAYYRYAMDYWGQGTLVTVSS
VL: DVVMTQSPLSLPVTLGQPASISCKSSQSLLDSRAKTYLTWLQQRPGQSPRRLIYLVSKLDSGVPDRFSGSGSGTDFTLKISRVEAEDVGVYYCWQGTHFPYTFGGGTKLEIKR
notes: as for B6
In the case of B10, in experiment [3], the equilibrium dissociation constant (Kd) was 0.0182 nM.

B11: BAMB612 (antibody, human IgG1, kappa, V domains shown)
VH: QVQLVQSGAEVKKPGASVKVSCKASGHVFTSYDMYWVRQSPGQGLEWIGYIDSDNGDTSYNQKFKGRVTLTVDTSTSTVYMELSSLRSEDTAVYYCAYYRYAMDYWGQGTLVTVSS
VL: DVVMTQSPLSLPVTLGQPASISCKSSQSLLDSRAKTYLTWLQQRPGQSPRRLIYLVSKLDSGVPDRFSGSGSGTDFTLKISRVEAEDVGVYYCWQGTHFPYTFGGGTKLEIKR
notes: as for B6
On to B11, for which the Kd in experiment [5] and in experiment [3] was 0.0117 nM throughout.

B12: BAMB630 (antibody, human IgG1, kappa, V domains shown)
VH: QVQLVQSGAEVKKPGASVKVSCKASGHVFTSYDMYWVKQAPGQSLEWIGYIDSDNGDTSYNQKFKGKVTLTVDTSTSTVYMELSSLRSEDTAVYYCAYYRYAMDYWGQGTLVTVSS
VL: DVVMTQSPLSLPVTLGQPASISCKSSQSLLDSRAKTYLTWLLQRPGQSPRRLIYLVSKLDSGVPDRFSGSGSGTDFTLKISRVEAEDVGVYYCWQGTHFPYTFGGGTKLEIKR
notes: as for B6
As to B12, in experiment [3], binding was put at a Kd of 0.0383 nM.
